Assay results reported in the supplement of paper PMC9170038.

System: MS2 coat protein
Assay: apparent KD of MS2 coat protein; designed switch direction (-1 OFF switch, 1 ON switch): -1; higher = weaker reporter binding
Method in brief: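 Each step of the titration lasted 0.8–1.5 h at the lowest concentration and 10–20 min at the highest. The protein, SNAP-549-labelled MS2 coat protein, went from 0.7 or 1.5 nM doubling to 3 µM over RNA switches transcribed on Illumina chips by stalled E. coli RNA polymerase. Normalised cluster fluorescence was curve-fitted, and the per-design median over clusters is given as apparent KD.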

[1] = input ligand: microRNA oligo, concentration not stated
[2] = Eterna round: R95, input ligand: microRNA oligo, concentration not stated
[3] = Eterna round: R95, input ligand: FMN 200 uM
[4] = Eterna round: R95, input ligand: none

Row | Sequence | apparent KD of MS2 coat protein (input ligand: FMN 200 uM) [nM] | apparent KD of MS2 coat protein [1] [nM] | apparent KD of MS2 coat protein (input ligand: none) [nM] | apparent KD of MS2 coat protein [2] [nM] | apparent KD of MS2 coat protein [3] [nM] | apparent KD of MS2 coat protein [4] [nM]
1 | CCUAUGUGAGGAUAUCACUGGUCUUCUUUUAUUUUUUACAGUGAGAAGGCACAUGAGGAUCACCCAUGUCGGUG [Ex4 - 3 - 49] (Eterna round: R96, puzzle: Exclusion 4) | 98.4 | 115 | 192 |  |  | 
2 | GCCUCACUUGAGGAUCACCCAAGUCAGGAUAUUCACUGAACUGCGUAACAGCUCGGCCGAAGAAGGGAUUCGGG [Leisatat] (Eterna round: R97, puzzle: Exclusion 1) | 80.8 |  | 78.5 |  |  | 
3 | UAAGCUCUGUCAGGAUAUCCCUGUAAACGCAACGGAGAAGGGACAUGAGGAUCACCCAUGUGCGGGCCCAACGCGCUCGGGUCC [Dilacesole] (Eterna round: R96, puzzle: Exclusion NG 1) | 63.6 | 23.6 | 35.1 |  |  | 
4 | UUAUCUACUGAGGAUAUUAUAUUACCCGACUGAUAAGAAGGCAGUACAUGAGGAUCACCCAUGUGGGUAGCCAU [Polaris11] (Eterna round: R97, puzzle: Exclusion 6) | 23.2 |  | 20.8 |  |  | 
5 | UAUUAGCAAGCGAGAUCCCACAUGAGGAUCACCCAUGUGCUCGUCUUAUAAAAGACUGUGACGAGAGUCACGGUCAC [Mat - Sensor, turn-off var - Eli Mod - D23] (Eterna round: R97, puzzle: Sensor, turn-off variant 1) | 13.7 |  | 12 |  |  | 
6 | UGAAAAGACCUAGGAUAUACCCAGUGGGUAGAGGGUCAGAAUAAUAAAACAUGAGGAUCACCCAUGUAGAAGGAGGGAAAGAAG [Laerxe] (Eterna round: R96, puzzle: Exclusion NG 2) | 48.3 | 42 | 59.4 |  |  | 
7 | AGGCGUGCUGAGGAUAUACUACCGGUUGCGAUAGUAGAAGGUAGCACAUGAGGAUCACCCAUGUGGUCAGAUGC [Bequte] (puzzle: Exclusion 6) |  |  |  | 19.1 |  | 
8 | GUGCCGCGAGGAUAUACAGACGGGUCCAGGGCGUGUCUCGGACUUGAGGAUCACCCAAGUAGAAGGCGUCUCAG [salish99_ex2_r4_615] (Eterna round: R97, puzzle: Exclusion 2) | 77.6 |  | 26.7 |  |  | 
9 | CUCGGACAUGAGGAUCACCCAUGUGAGGAUAUGGCGCGAUCGUCGAAAGACGAUAGCGCCAGAAGGCACAAAUG [LRO-Excl1-26] (puzzle: Exclusion 1) |  |  |  | 52 |  | 
10 | GACCUAUAGGUAGGAUAUCAUUGCGAUUAGCUAUGAGAAGGACCACAUGAGGAUCACCCAUGUCCUCUAAUUAGCCAUUUGGUC [Fiskers ExNg1 - 8] (Eterna round: R96, puzzle: Exclusion NG 1) |  | 338 |  |  |  | 
11 | CUGACGUCAGGAUAUAGCAUACACUGACUAGAUGGACAGGGUUAGAAGGGACAUGAGGAUCACCCAUGUGGUUU [Eternabot (L1) Solution 81] (Eterna round: R97, puzzle: Exclusion 4) | 56.3 |  | 50.5 |  |  | 
12 | UAAUAUAGUGUGAGGAUAUGCUGGUCCUUGGAUCAGCAGAAGGCACAUGAGGAUCACCCAUGUAGUUUAUUUUA [Mat - Exclusion 4 - JL Mod - D2] (puzzle: Brourd's mod of Exclusion 4) |  |  |  | 28.2 | 141 | 28.2
13 | UCUGUUCAAGGAUAUGCGUAAGGUGUUACGGCACCAGGUCUACAUGAGGAUCACCCAUGUAGAAGGUGAUCAGA [EX2 #88] (Eterna round: R97, puzzle: Exclusion 2) | 22.4 |  | 20.3 |  |  | 
14 | AUGUACCGGUGAGGAUAUUUUUAAUAGAGCUUUAUGAUAUACAUGAGGAUCACCCAUGUUACGUUAAAGAAGGCAUCGGAUUAA [Mat - Exclusion NG 2 - Mod of JL - D96] (Eterna round: R96, puzzle: Exclusion NG 2) |  | 14 |  |  |  | 
15 | AGUACUAACACGAAAGUGUUAGUACAAUAAGCUUGUGUAACAUGAGGAUCACCCAUGUCCUCAUAAGCUCGUCUUAU [salish99_TOv2_r3_043] (puzzle: Sensor v3, turn-off variant 2) |  |  |  | 38.3 | 50.6 | 51.6
16 | UCAAGUCCAUAGGAUAUCGACCAGUCCUCUGGAUGAGAAGGAUGAACUUGAGGAUCACCCAAGUGGCCGAAUAA [Aesin] (Eterna round: R97, puzzle: Exclusion 6) | 152 |  | 46.3 |  |  | 
17 | CCUAAACAUGAGGAUCACCCAUGUGAGGAUAUGAUGCGAAUAAAGAAAGAAGAAAGCAUCAGAAGGCACAUAGG (Eterna round: R96, puzzle: Exclusion 1) |  | 131 |  |  |  | 
18 | CCUAUGUGAGGAUAUCACUGGUCUUUUCAUUGGAUGAUUAGUGAGAAGGCACAUGAGGAUCACCCAUGUCGGUG [Ex4 - 3 - 52] (puzzle: Exclusion 4) |  |  |  | 34.6 |  | 

Row | Sequence | apparent KD of MS2 coat protein (input ligand: FMN 200 uM) [nM] | apparent KD of MS2 coat protein [1] [nM] | apparent KD of MS2 coat protein (input ligand: none) [nM] | apparent KD of MS2 coat protein [2] [nM] | apparent KD of MS2 coat protein [3] [nM] | apparent KD of MS2 coat protein [4] [nM]
19 | CAGUACUGAGGAUAUACAUGAGGAUCACCCAUGUGUUCCAGCUAGGAAACUAGCAAAGGUAGAAGGCAGUACUG [salish99_ex3_r3_065] (puzzle: Exclusion 3) |  |  |  | 23.9 | 587 | 23.3
20 | CUUCUCAAAGGAUAUCACGGUAAUAACAUGAGGAUCACCCAUGUGCAAUUCGUGUCCCUGUGAGAAGGUUGAGAAG [Remaor] (puzzle: Exclusion 5) |  |  |  | 10.5 |  | 
21 | AUAAAGCAGUCAGGAUAUAUGAGAGGUCGUUUCAUAGAAGGGACAGCUCGUGCGUGGCUGACAUGAGGAUCACCCAUGUACGUU [Enrizala] (Eterna round: R96, puzzle: Exclusion NG 1) | 229 | 39.1 | 37.6 |  |  | 
22 | GGUUGCGCAGGAUAUACAUGAGGAUCACCCAUGUGAGAGAAAUAAGUGAGGAAGAAAAGUAGAAGGGCGUGACA [Mat - Exclusion 3 - Mod of Salish D75] (puzzle: Exclusion 3) |  |  |  | 45.3 | 175 | 58.9
23 | GCACGGAUUGUAGGAUAUCUGUGCGAUUAGCUCAGAGAAGGACACAUGAGGAUCACCCAUGUUACCUCAAUUAGCCUUCCGUGC [Eli exng1 - 030] (Eterna round: R96, puzzle: Exclusion NG 1) | 21.7 | 14.9 | 20 |  |  | 
24 | UUCCUCACUUCUUUGUCUCACAUGAGGAUCACCCAUGUAAUAUAGGAUAUGCUUAGUAUUUAUAUGCAGAAGGAUAUUAGUAUU [JR_ExcNG3_Sub084] (Eterna round: R96, puzzle: Exclusion NG 3) | 157 | 39.8 | 55.5 |  |  | 
25 | CAUACAGUAGUCAGGAUAUUGGAAGAGACACGGAACGAGAAGGGACAUGAGGAUCACCCAUGUAUACUGUAAAG [EX-4 Malc #4] (puzzle: Brourd's mod of Exclusion 4) |  |  |  | 23.8 |  | 
26 | UAUUUAGCAAGCAGAUCCCACAUGAGGAUCACCCAUGUUCUCUGAAAGUACAGAAUUACUGUACAUGCUCGUCUUAU [Winner reversed engineered 33] (Eterna round: R97, puzzle: Sensor, turn-off variant 1) | 108 |  | 130 |  |  | 
27 | GUAGAGUAAGGAUAUACUGAAUAGGAUAGAAUGGUUAGAAAGUAGAAGGUACAUGAGGAUCACCCAUGUAAUGU [Excluse me!!!! 19 - Jieux - Exclusion 4] (puzzle: Exclusion 4) |  |  |  | 20.4 |  | 
28 | GAGAGAGACAUAGGAUAUUCACCCACACAUGAGGAAGAAGGAUGUAGACAUGAGGAUCACCCAUGUGGAUCACCCAUGUUUGUG [All by luck] (Eterna round: R96, puzzle: Exclusion NG 1) | 22 | 12.1 | 24.7 |  |  | 
29 | ACUUACUGAGGAUAUACUUAGAUUUACAUGAGGAUCACCCAUGUUCCUCUAUGUAUAUAUGUAGAAGGCAGAAGAA [JL-ex5-4.35 Malcolm mod] (Eterna round: R97, puzzle: Exclusion 5) | 120 |  | 23.7 |  |  | 
30 | ACAUGUAAUGCAGGAUAUCGGACACAUGAGGAUCACCCAUGUGACCAGAGGAAUUGCUAAGAGUCUGAGAAGGGUAUGUACAUG [Ex NG2 #52] (Eterna round: R96, puzzle: Exclusion NG 2) | 23.2 | 12.9 | 19 |  |  | 
31 | GCUCAACAUGAGGAUCACCCAUGUCAGGAUAUGCGAAUUUCAUCAAAAGAUGAAAUUUGCAGAAGGGACUAAGC [Omei Ex1 A32] (Eterna round: R97, puzzle: Exclusion 1) | 114 |  | 52.6 |  |  | 
32 | GAAAGACAUGAGGAUCACCCAUGUCAGGAUAUGAUGCCAGCGUAGCUAGUAGGUUUUGUCAGAAGGGACGGGUU [Eternabot (L1) Solution 70] (Eterna round: R97, puzzle: Exclusion 1) | 32.2 |  | 27.4 |  |  | 
33 | AGAAAUGCCCAUGGCCACAAGCUUUUUGCUUGCCUUACCACAUGAGGAUCACCCAUGUGACAUGGGCUCCUUAUAAU [Teoredale] (puzzle: Sensor v3, turn-off variant 2) |  |  |  | 13.1 | 15.3 | 14
34 | ACAUGAGGAUCACCCAUGUCCGGCUGGUCCGUCUCGGCUGUCGAGGAUAUAGCUCGGUGUCCGCGCUAGAAGGCGGGAGCUGGC [Aenatbe mod 67] (Eterna round: R96, puzzle: Exclusion NG 3) | 91.5 | 49.8 | 85.1 |  |  | 
35 | UGAUUGUUUACCAGGUUAUACAUGAGGAUCACCCAUGUAGAUCCUACGUGCGCGUUGUACCGCUCGUCUUAUUGCCA [Sensor-V1 #79] (Eterna round: R97, puzzle: Sensor, turn-off variant 1) | 19.5 |  | 21.3 |  |  | 
